{"source": "patent US10501552B2", "about": "“Multivalent molecules comprising DR5-binding domains” (MacroGenics, Inc., priority 2015, dated 2019)", "key": {"colon cancer tissue": {"test_system": "colon cancer tissue", "assay": "tissue staining with labeled molecule", "type": "binding", "conditions": "5 μg/mL", "excerpt": "(§1) The results presented in FIGS. 15A-15B, 16, and Table 10, thus indicate that a tetravalent DR5-Binding Molecule (bispecific for two epitopes of DR5) was capable of specifically binding to cancer cells."}, "lung cancer tissue": {"test_system": "lung cancer tissue", "assay": "tissue staining with labeled molecule", "type": "binding", "conditions": "5 μg/mL", "excerpt": "as §1"}, "[1]": {"test_system": "normal tissue (colon, liver, lung, pancreas, kidney, heart)", "assay": "tissue staining with labeled molecule", "type": "binding", "conditions": "5 μg/mL", "excerpt": "as §1"}, "Hs746T": {"test_system": "Hs746T", "assay": "[…]-GLO cell viability assay with vorinostat", "type": "cell-based", "conditions": "Hs746T (Stomach); 1 μg/ml + 10 μM Vorinostat"}, "SKBR3": {"test_system": "SKBR3", "assay": "[…]-GLO cell viability assay with vorinostat", "type": "cell-based, human", "conditions": "SKBR3 (Breast); 1 μg/ml + 1 μM Vorinostat"}, "AsPC1": {"test_system": "AsPC1", "assay": "[…]-GLO cell viability assay with vorinostat", "type": "cell-based", "conditions": "AsPC1 (Pancreas); 1 μg/ml + 1 μM Vorinostat"}, "Calu3": {"test_system": "Calu3", "assay": "[…]-GLO cell viability assay with vorinostat", "type": "cell-based", "conditions": "Calu3 (Lung); 1 μg/ml + 1 μM Vorinostat"}, "BT474": {"test_system": "BT474", "assay": "[…]-GLO cell viability assay with vorinostat", "type": "cell-based", "conditions": "BT474 (Breast); 1 μg/ml + 10 μM Vorinostat"}, "[2]": {"test_system": "target tumor cells (A549, SKMES, DU145, A375, SKBR3, JIMT)", "assay": "LDH release cytotoxicity with PBMC, comparison of DR5×CD3 diabodies", "type": "cell-based, human", "conditions": "VL and VH Domains tested as DR5×CD3 mAb 2 diabodies, 24 hours, 20:1", "method": "In order to make such a comparison, a bispecific DR5×CD3 diabody having the structure shown in FIG. 1 containing the VL and VH Domains of these anti-DR5 antibodies and the VL and VH Domains of CD3 mAb 2 were prepared essentially as described above. The first and second The prepared diabodies were designated “DR5 mAb 1×CD3 mAb 2”; “DR5 mAb 2×CD3 mAb 2”; “DR5 mAb 3×CD3 mAb 2”; and “DR5 mAb 4×CD3 mAb 2”.\nTarget tumor cells were incubated with one of these diabodies or with the control diabody (4-4-20×CD3 mAb 2) in the presence of peripheral blood mononuclear cells (PBMC) and target tumor cells for 24 hours at an effector to target cell ratio of 20:1. The percentage cytotoxicity was determined by measuring the release of lactate dehydrogenase (LDH) into the media by damaged cells.\nThe employed target tumor cells were: A549 adenocarcinomic human alveolar basal epithelial cells (FIG. 10A), SKMES human lung cancer cells (FIG. 10B), DU145 human prostate cancer cells (FIG. 10C), A375 human malignant melanoma cells (FIG. 10D), SKBR3 human HER2-overexpressing breast carcinoma cells (FIG. 10E), and JIMT human breast carcinoma cells (FIG. 10F)."}, "[3]": {"test_system": "human DR5-Fc fusion protein", "sequence (as listed by the source)": "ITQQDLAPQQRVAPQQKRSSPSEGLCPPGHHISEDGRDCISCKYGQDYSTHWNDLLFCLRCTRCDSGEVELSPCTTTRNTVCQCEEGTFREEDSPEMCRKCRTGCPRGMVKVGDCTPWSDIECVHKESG", "assay": "competition for binding to immobilized DR5-Fc fusion", "conditions": "for amount of immobilized biotinylated antibody: 1 μg/mL biotinylated DR5 mAb, 1 μg/mL DR5-Fc Fusion coat", "method": "In order to determine whether the antibodies bound to different DR5 epitopes, a human DR5-Fc fusion protein was prepared and was coated to an immobilized surface."}}}
{"molecule": "DR5 mAb 1: anti-human DR5 monoclonal antibody; VL SEQ ID NO:3, VH SEQ ID NO:8 (antibody, listed as Mus musculus, V domains shown, (1)..(121) Anti-DR5 Antibody mAb 1 Heavy Chain Variable Region; (1)..(111) Anti-DR5 Antibody mAb 1 Light Chain Variable Region) VH: EVKFLESGGGLVQPGGSLKLSCVASGFDFSRYWMSWVRQAPGKGLEWIGEINPDSNTINYTPSLKDKFIISRDNAKNTLYLQMTKVRSEDTALYYCTRRAYYGNPAWFAYWGQGTLVTVSS VL: DIVLTQSPASLAVSLGQRATISCRASKSVSSSGYSYMHWYQQKPGQPPKVLIFLSSNLDSGVPARFSGSGSGTDFTLNIHPVEDGDAATYYCQHSRDLPPTFGGGTKLEIK", "values": [{"measurement": "labeling of cells of colon cancer tissue", "setting": "colon cancer tissue", "result": "strongly label"}, {"measurement": "labeling of cells of lung cancer tissue", "setting": "lung cancer tissue", "result": "strongly label"}, {"measurement": "labeling of cells of normal tissue", "setting": "[1]", "result": "failed to label"}, {"measurement": "Net Gain (Average % Growth Inhibition)", "setting": "Hs746T", "result": 0.20, "unit": "%"}, {"measurement": "Net Gain (Average % Growth Inhibition)", "setting": "SKBR3", "result": 0.69, "unit": "%"}, {"measurement": "Net Gain (Average % Growth Inhibition)", "setting": "AsPC1", "result": 5.11, "unit": "%"}, {"measurement": "Net Gain (Average % Growth Inhibition)", "setting": "Calu3", "result": 0.11, "unit": "%"}, {"measurement": "Net Gain (Average % Growth Inhibition)", "setting": "BT474", "result": 2.15, "unit": "%"}, {"measurement": "potency in inducing cytotoxicity versus reference DR5 mAbs", "setting": "[2]", "result": "more potent"}, {"measurement": "epitope comparison by competition", "setting": "[3]", "result": "bind to different epitopes"}, {"measurement": "amount of immobilized biotinylated antibody", "setting": "[3]; 10 μg/mL competitor DR5 mAb 2", "result": 0.826}, {"measurement": "amount of immobilized biotinylated antibody", "setting": "[3]; 10 μg/mL competitor mIgG", "result": 2.162}]}
{"molecule": "DR5 mAb 2: murine anti-human DR5 monoclonal antibody; VL SEQ ID NO:13, VH SEQ ID NO:18 (antibody, listed as Mus musculus, V domains shown, (1)..(119) Anti-DR5 Antibody mAb 2 Heavy Chain Variable Region; (1)..(107) Anti-DR5 Antibody mAb 2 Light Chain Variable Region) VH: KVQLQQSGAELVKPGASVKLSCKASGYTFTEYILHWVKQKSGQGLEWIGWFYPGNNNIKYNEKFKDKATLTADKSSSTVYMELSRLTSEDSAVYFCARHEQGPGYFDYWGQGTTLTVSS VL: DIVMTQSHKFMSTSVGDRVSITCKASQDVNTAVAWYQQKPGQSPKLLIYWASTRHTGVPDRFTGSGSGTDYTLTIKSVQAEDLTLYYCQQHYITPWTFGGGTKLEIK", "values": [{"measurement": "labeling of cells of colon cancer tissue", "setting": "colon cancer tissue", "result": "strongly label"}, {"measurement": "labeling of cells of lung cancer tissue", "setting": "lung cancer tissue", "result": "strongly label"}, {"measurement": "labeling of cells of normal tissue", "setting": "[1]", "result": "failed to label"}, {"measurement": "Net Gain (Average % Growth Inhibition)", "setting": "Hs746T", "result": 0.20, "unit": "%"}, {"measurement": "Net Gain (Average % Growth Inhibition)", "setting": "SKBR3", "result": 0.69, "unit": "%"}, {"measurement": "Net Gain (Average % Growth Inhibition)", "setting": "AsPC1", "result": 5.11, "unit": "%"}, {"measurement": "Net Gain (Average % Growth Inhibition)", "setting": "Calu3", "result": 0.11, "unit": "%"}, {"measurement": "Net Gain (Average % Growth Inhibition)", "setting": "BT474", "result": 2.23, "unit": "%"}, {"measurement": "potency in inducing cytotoxicity versus reference DR5 mAbs", "setting": "[2]", "result": "more potent"}, {"measurement": "epitope comparison by competition", "setting": "[3]", "result": "bind to different epitopes"}, {"measurement": "amount of immobilized biotinylated antibody", "setting": "[3]; 10 μg/mL competitor DR5 mAb 1", "result": 2.377}, {"measurement": "amount of immobilized biotinylated antibody", "setting": "[3]; 10 μg/mL competitor mIgG", "result": 2.102}]}
